Article PMC6312627

Assays:
streptavidin (MST) [1] = target: streptavidin (MST) (UniProt P22629); assay: MST; conditions: PBSMCT selection buffer (PBS with Mg2+, CaCl2, 0.01% Tween 20; full composition not in material), pH 7.4 or pH 5.2 (HCl); bead assays at RT, MST at 25 C with …
streptavidin (MST) [2] = target: streptavidin (MST) (UniProt P22629); assay: MST; conditions: PBSMCT selection buffer (PBS with Mg2+, CaCl2, 0.01% Tween 20; full composition not in material), pH 7.4 or pH 5.2 (HCl); bead assays at RT, MST at 25 C with …; remark: listed apart in the source
streptavidin (MST) [3] = target: streptavidin (MST) (UniProt P22629); assay: cited; conditions: PBSMCT selection buffer (PBS with Mg2+, CaCl2, 0.01% Tween 20; full composition not in material), pH 7.4 or pH 5.2 (HCl); bead assays at RT, MST at 25 C with …; cited from earlier work
[4] = target: streptavidin-phycoerythrin (SA-PE) (UniProt P22629); assay: bead-based flow cytometry; conditions: PBSMCT selection buffer (PBS with Mg2+, CaCl2, 0.01% Tween 20; full composition not in material), pH 7.4 or pH 5.2 (HCl); bead assays at RT, MST at 25 C with …
[5] = target: streptavidin-phycoerythrin (SA-PE) (UniProt P22629); assay: bead-based flow cytometry; conditions: PBSMCT selection buffer (PBS with Mg2+, CaCl2, 0.01% Tween 20; full composition not in material), pH 7.4 or pH 5.2 (HCl); bead assays at RT, MST at 25 C with …; remark: listed apart in the source

Sequence	Kd (streptavidin (MST) [2]) [nM]	Kd [5] [nM]	binding signal (% reduction vs S8) [5]	also measured
ATTGACCGCTGTGTGACGCAACACTCAAT [SBA29]	6.1	10.4		Kd (streptavidin (MST) [1]): 27 nM; Kd (streptavidin (MST) [3]): 40 nM; Kd [4]: 3.5 nM
ATACCAGCTTATTCAATTATTGACCGCTGTGTGACGCAACACTCAATTCTTGGATCTCGCTGCACACAGATAGTAAGTGCAATCT [S8]	10	112		
ATACCAGCTTATTCAATTATTGACCGCTGTGTGACGCAACACTCAATTCTTGGATCTCGCTTCACACAGATAGTAAGTGCAATCT [S8 T62]			65	
ATACCAGCTTATTCAATTATTGACCGCTGTGTGACGCAACACTCAATACCTTCTCAACGTTCTCTGTAGATAGTAAGTGCAATCT [S3]		24.2		
ATACCAGCTTATTCAATTATTGACCGCTGTGTGACGCAACACTCAATTCTTGGATCTCGCGGCACACAGATAGTAAGTGCAATCT [S8 G61]			75	
